Laboratory results: US11866736B2, “Protein prostheses for mitochondrial diseases or conditions” (The General Hospital Corporation, priority 2015, dated 2024)
Residue numbers refer to the chain shown, from its start. Names and notes keep the numbering of the source.

B1: LbNOX: water-forming NADH oxidase endogenous to Lactobacillus brevis; tested with C-terminal FLAG tag (protein, listed as Lactobacillus brevis)
chain: KVTVVGCTHAGTFAIKQILAEHPDAEVTVYERNDVISFLSCGIALYLGGKVADPQGLFYSSPEELQKLGANVQMNHNVLAIDPDQKTVTVEDLTNHAQTTESYDKLVMTSGSWPIVPKIPGIDSDRVKLCKNWAHAQALIEDAKEAKRITVIGAGYIGAELAEAYSTTGHDVTLIDAMARVMPKYFDADFTDVIEQDYRDHGVQLALGETVESFTDSATGLTIKTDKNSYETDLAILCIGFRPNTDLLKGKVDMAPNGAIITDDYMRSSNPDIFAAGDSAAVHYNPTHQNAYIPLATNAVRQGILVGKNLVKPTVKYMGTQSSSGLALYDRTIVSTGLTLAAAKQQGLNAEQVIVEDNYRPEFMPSTEPVLMSLVFDPDTHRILGGALMSKYDVSQSANTLSVCIQNENTIDDLAMVDMLFQPNFDRPFNYLNILAQAAQAKVAQSVNA
modifications: C-terminal FLAG tag
B2: TPNOX: NADPH-specific quintuple mutant (G159A/D177A/A178R/M179S/P184R) of LbNOX (protein)
chain: B1 chain with G158A, D176A, A177R, M178S, P183R

Key:
[1] = system: HeLa Tet3G cells; assay: Total NAD+/NADH ratio by HPLC; type: cell-based, human; conditions: doxycycline-inducible expression
Experimental: One million HeLa Tet3G Luciferase, LbNOX or mitoLbNOX cells were seeded per a 10 cm plate in 10 ml of DMEM (DMEM (US Biological, D9800), 3.7 g/L NaHCO3, 10% dialyzed FBS (Life Technologies, 26400-044)). Twenty four hours and 1 hour before extraction, media was exchanged to 10 ml of DMEM without pyruvate (DMEM (US Biological, D9802), 15.9 mg/L phenol red, 3.7 g/L NaHCO3, 10% dialyzed FBS (Life Technologies, 26400-044)) with or without 300 ng/ml doxycycline. The media that was used 1 hour before extraction was preincubated overnight in tissue culture incubator without cells. Media was quickly aspirated, cells rinsed with 15 ml of ice-cold PBS, transferred to dry ice and 4 ml of dry ice cold solution of 80% methanol: 20% water (spiked with 5 μM Sodium L-Lactate-3,3,3-D3 and 0.2 μM Sodium [3-^13C]Pyruvate) was added and quickly spread around by tilting the plate. The whole procedure from aspiration of media to adding 80% methanol solution took about ˜15 seconds. The plate was transferred on dry ice to −80° C. freezer and incubated for 15 min. […]
Metabolites were analyzed by ion exchange chromatography using μBondapak NH2 300×3.9-mm column (Waters, WAT084040) attached to Agilent 1260 HPLC system. […] Absorbance was monitored at […] for NADH. […] Energy charge calculated ([ATP]+0.5 [ADP])/([ATP]+[ADP]+[AMP]) was usually ˜0.95.

[2] = Enzyme-monitored turnover (stopped flow, FAD absorbance at 455 nm); type: biochemical
Experimental: The experiment was carried out by monitoring the time dependence of FAD oxidation state via its absorbance at 455 nm in 50 mM NaPi pH7.5 150 mM NaCl buffer at 4° C. Air-saturated LbNOX (1.9, 2.9, 5.6 and 9.18 μM FAD active sites after mixing) and air-saturated solution of NADH (2 mM after mixing). The traces at 455 nm are treated as records of the rate of catalysis as a continuous function of the concentration of O2 (the limiting substrate).
The reaction of LbNOX with oxygen was studied by the enzyme-monitored turnover method (Gibson, et al., J. Biol. Chem., 239:3927, 1964; and Tapley, et al., J. Biol. Chem., 282:10263, 2007). Rapid reaction studies were carried out at 4° C. in a SX20 stopped flow instrument (Applied Photophysics, UK) equipped with a diode array detector. To follow the redox state of the FAD cofactor, LbNOX enzyme (1.9, 2.9, 5.6 and 9.18 μM FAD active sites after mixing) was mixed with NADH (2 mM after mixing), both prepared in air-saturated assay buffer (50 mM Na2HPO4, pH 7.5, 150 mM NaCl) and absorbance at 455 nm was monitored over time. Solubility of oxygen at 4° C. was calculated from oxygen solubility table at corresponding salinity of the assay buffer which is ˜380 μM. Results represent (n=3) independent experiments. The traces at 455 nm reflect the conversion of oxidized to reduced enzyme forms and are treated as previously described (Gibson, et al., J. Biol. Chem., 239:3927, 1964), where the area under the curve is proportional to the concentration of oxygen which is a limiting substrate under these conditions. […] We therefore estimated that apparent KM for O2 to be less than 2 μM. Based on the enzyme concentration (1.9-9.18 μM) and time it took to consume O2 (8.12-1.67 sec), apparent kcat can be calculated (FIG. 7).

[3] = system: HeLa cells; assay: Tolerability of doxycycline-inducible expression in HeLa cells; type: cell-based, human
Description: Lentiviral infection was used to generate HeLa cells that expressed untargeted or mitochondria-targeted TPNOX (referred to as TPNOX and mitoTPNOX, respectively) under the control of a doxycycline-inducible promoter (TRE3G) (FIG. 16A).

Row | Molecule | effect on total NAD+/NADH ratio [1] | apparent KM for O2, fold lower than the concentration of oxygen in human venous blood [2] | apparent KM for O2 expressed as % O2 ([2]; estimated from enzyme-monitored turnover) [% O2] | Km ([2]; estimated from enzyme-monitored turnover, 4° C., read-out: apparent KM for O2) [µM] | tolerability of expression (cell morphology, viability, proliferation) [3]
1 | B1 | did not have a significant effect | more than 10 fold | ~0.17 | < 2 | 
2 | B2 |  |  |  |  | safely tolerated
